Data on six molecules can be found in patent publication US20030223996A1 (published 2003).

For experiment [1], the target named is T1, mouse membrane-bound BLyS on P388 plasma membranes (mouse, UniProt Q9WU72 1-309).
T1 construct: whole, on cells; Plasma membrane preparations, not intact cells
Nature of the experiment: competition phage ELISA on P388 membranes. Here is the method: The ability of the 5 scFvs listed in Table 8 to also recognize murine membrane-bound BLyS was determined using a competition ELISA. This assay assesses the ability of test phage scFvs to bind to the membrane-bound form of BLyS on the murine cell line, P388, plasma membranes in the presence of different forms of competing human BLyS. Competing BLyS was either presented as the His-tagged form of BLyS, or soluble BLyS. ScFvs that recognize mouse membrane-bound BLyS would give an ELISA signal on the P388 plasma membranes that is competed out by pre-incubation with HIS-tagged BLyS but not by pre-incubation with soluble BLyS.
P388 plasma membranes (50 μl per well) were coated at 10 μg/ml in PBS onto Falcon 96-well plates overnight at 4° C. The method is otherwise essentially as described Example 16.

The target in experiment [2] is T2, Tumour Necrosis Factor-beta (human, UniProt P01374 35-205).
T2 construct: also called TNFβ; TNF-β
T2 sequence (looked up): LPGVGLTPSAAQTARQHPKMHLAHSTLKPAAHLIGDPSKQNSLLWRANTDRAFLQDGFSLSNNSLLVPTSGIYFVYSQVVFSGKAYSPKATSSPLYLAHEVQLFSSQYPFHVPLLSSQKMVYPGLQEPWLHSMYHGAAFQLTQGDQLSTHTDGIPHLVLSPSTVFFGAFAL
In words: phage ELISA. The method, then:
(§1) To determine the specificity of the 48 scFvs, a phage ELISA was performed against human and mouse BLyS, and a panel of related and unrelated human antigens: Fas ligand, TRAIL, TNFα, TNFβ, and PBS. The: Fas ligand, TRAIL, TNFα, and TNFβ antigens were obtained from R&D Systems, Minneapolis, Minn. Individual E. coli colonies containing phagemid were inoculated into 5 ml 2YTAG and incubated at 37° C. for 4 hours, shaking. M13KO7 helper phage (Pharmacia) was added to each tube to a MOI of 10 and incubated […] 1 hour, the first 30 minutes static and the final 30 minutes with gentle shaking. Cells were pelleted by centrifugation at 3,500 rpm for 10 minutes and the supernatant discarded. Cell pellets were resuspended in 5 ml 2TYAK and incubated at 30° C. overnight with shaking. The next day, the cells were pelleted by centrifugation at 3,500 rpm for 10 minutes. The phage-containing supernatant (5 ml) was carefully transferred to a fresh tube, 1 ml of 6MPBS was added, and the tube was incubated at room temperature for 1 hour to pre-block the phage prior to ELISA.
(§2) All antigens were coated at 1 μg/ml. ELISAs were performed essentially as described in Example 2. The only exception to this being the detection of phage antibody binding to mouse BLyS where the step involving incubation with the HRP-labelled anti-mouse polymer was omitted. Binding to mouse BLyS was detected with TMB as in Example 2.
Background: An ELISA detects its analyte on a solid surface through an enzyme-linked reagent.

Experiment [3] deals with T3, Tumour Necrosis Factor-alpha (human, UniProt P01375 77-233).
T3 construct: also called TNFα; TNF-α
Nature of the experiment: phage ELISA. The method, then: as §1, §2

T1 sequence (Q9WU72 whole entry): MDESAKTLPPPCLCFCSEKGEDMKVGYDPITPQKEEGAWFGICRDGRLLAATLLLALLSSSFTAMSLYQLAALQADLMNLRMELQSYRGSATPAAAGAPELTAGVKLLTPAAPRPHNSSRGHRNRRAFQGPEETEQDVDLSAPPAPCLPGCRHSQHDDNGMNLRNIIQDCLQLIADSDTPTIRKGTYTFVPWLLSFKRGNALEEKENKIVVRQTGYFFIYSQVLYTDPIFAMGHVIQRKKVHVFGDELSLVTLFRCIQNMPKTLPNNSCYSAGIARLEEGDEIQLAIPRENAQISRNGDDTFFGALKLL
T3 sequence (P01375 77-233 limits assumed): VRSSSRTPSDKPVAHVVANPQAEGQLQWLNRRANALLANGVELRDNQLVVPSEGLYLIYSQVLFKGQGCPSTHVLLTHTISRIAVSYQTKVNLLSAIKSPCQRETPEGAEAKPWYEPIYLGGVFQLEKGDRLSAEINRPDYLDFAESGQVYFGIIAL

B1: I082H08 (scFv)
scFv: EVQLVESGGGLVQPGGSLRLSCAASGFTFSDYGMHWVRQRPGKGLEWIAFIGSDGSNKYYGDTVKGRFTISRDNAKNSLYLQMNSLRAEGTAVYYCARDWDMDVWGQGTMVTVSSGGGGSGGGGSGGGGSSHVILTQPRSVSGSPGQSVTISCTGTSSDVGGYHYVSWYQQHPGKAPRLMIYEVTKRPSGVSNRFSGSKSGNTASLTISGVQAEDEADYYCSSYTSASTVIFGGGTKLTVLG
As to B1, the binding result in experiment [1] is listed as “binds”.

B2: I099D03 (scFv)
scFv: QVQLVQSGAEVKKPGASVRVSCKSSGYTFTNYGISWVRQAPGQGLEWMGWISNNNGKTYYAQKVQGRVTMTTDTSTSTDYMELRGLRSDDTAIYYCARDNGGGTIGFDYWGRGTLVTVSSGGGGSGGGGSGGGGSAQAVLTQPSSVSGAPGQRVTMSCTGSSSNIGAGYDVHWYQQLPGTAPKLLIYDNTNRPSGVPDRFSGSRSGTSASLAITGLQAEDEADYFCQSYDITLSAVFGTGTKVTVLG
For the molecule B2, the binding result in experiment [1] is reported as “binds”.

B3: I016F04 (scFv)
scFv: QVQLQQSGSELKKPGASVKVSCKVSGYSLTKMSMHWVRQSPGEGLEWVGGIDPETRQPVYAQKFQGRVTITKDTSASAAYMELSSLGSEDTALYYCARATYDPLTGYSFDGFDIWGQGTLVTVSSGGGGSGGGGSGGGGSQSVLTQPASVSGSPGQSITISCTGTSSDVGGYNYVSWYQQHPGKAPKLMIYEGSKRPSGVSNRFSGSKSGNTASLTISGLQAEDEADYYCSSYTTRSTRVFGGGTKLTVLG
On to B3, for which, in experiment [2], the binding result is listed as “no binding”.

B4: I079E02 (scFv)
scFv: QVQLVQSGAEVKKPGSSVKVSCKASGGTFSSYAISWVRQAPGQGLEWMGGIIPIFGTANYAQKFQGRVTITADKSTSTAYMELSSLRSDDTAVYYCARDSGSYYYDAFDIWGKGTMVTVSSGGGGSGGGGSGGGGSDIVMTQSPSTLSASVGDRVTITCRASQGISSWLAWYQQKPGKAPKLLIYAASSLQSGVPSRFSGSGSGTDFTLTISSLQPEDFATYYCQQANSFPLTFGGGTKVEIKR
Turning to B4, in experiment [1], the binding result is given as “binds”.

B5: I050A07 (scFv)
scFv: QVQLVQSGAEVKKPGASMKVSCKASAGRASAYGFAMHPIHWVRQAPGQGLEWMGWINGGTGNTKYSEKFLGRVTMTSDTSATTAYMELSSLRSEDTAVYYCARQDNDPLTGYKLGFDYWGKGTLVTVSSGGGGSGGGGSGGGGSAQSVVTQPPSVSGAPGQRVTISCTGSSTNVGAGYGVHWYQQFPETAPKLLIYGGSNRPSGVPDRFSGSQSGTSASLAITGLQAEDEADYYCQSYDTTLSGYVFGTGTKVTVLG
As for B5, the binding result in experiment [3] is “no binding”.

B6: I001C09 (scFv)
scFv: GVQLVQSGPEVKKPGASVKVSCTASGYTFTSYGVSWVRQAPGQGLEWIGWISAHNGQTKYAEKFQGRVTMTRNTSISTAYMELSSLRSEDTAVYYCARDGSYDILTGYYIDNYMDVWGKGTMVTVSSGGGGSGGGGSGGGGSSELTQDPAVSVALGQTVRITCQGDSLRSYYTNWFQQKPGQAPLLVVYAKNKRPSGIPDRFSGSSSGNTASLTITGAQAEDEADYYCHSRDSSGNHVLFGGGTKLTVLG
With B6, the binding result in experiment [3] is “no binding”.
